Source: patent US20230321209A1

What follows are binders tested against human Adenovirus capsid (assay: SPR, peptide on adenovirus capsid (FIGS. 13A-13B)).
KKKKKKKKKKLIFLWLLWPVTLACFVLAAV [VME1_KLIFL SARS-CoV2 peptide with 9K poly-lysine tail] gave a list of priority (rank by SPR binding, high binders listed first) of 4 rank. KKKKKKLPKEITVATSRTLSYYKLGA [VME1_LPKEI SARS-CoV2 peptide with 6K poly-lysine tail] showed a list of priority (rank by SPR binding, high binders listed first) of 6 rank. KKKKKKALALLLLDRLNQLESKMSGK [NCAP_ALALL SARS-CoV2 peptide with 6K poly-lysine tail] showed a list of priority (rank by SPR binding, high binders listed first) of 9 rank. Work on KKKKKKAQFAPSASAFFGMSRIGMEV [NCAP_AQFAP SARS-CoV2 peptide with 6K poly-lysine tail] yielded a list of priority (rank by SPR binding, high binders listed first) of 7 rank. KKKKKKKVTLVFLFVAAIFYLITPVHVMSK [R1AB_KVTLV SARS-CoV2 peptide with 6K poly-lysine tail] showed a list of priority (rank by SPR binding, high binders listed first) of 3 rank. KKKKKKKKKGLVAEWFLAYILFTRFFYVL [R1AB_GLVAE SARS-CoV2 peptide with 9K poly-lysine tail] gave a list of priority (rank by SPR binding, high binders listed first) of 1 rank. KKKKKKKKKGLEAPFLYLYALVYFLQSINFV [AP3A_GLEAP SARS-CoV2 peptide with 9K poly-lysine tail] showed a list of priority (rank by SPR binding, high binders listed first) of 2 rank.
